Data: patent US7994133B2, “Isozyme-specific antagonists of protein kinase C” (The Board of Trustees of the Leland Stanford Junior …, priority 2003, dated 2011)
Changes are numbered by the printed parent chain.

B1: D(86)A: εPKC mutant wherein D at position 86 of ΨεRACK on εPKC is substituted with an A (protein)
chain: MVVFNGLLKIKICEAVSLKPTAWSLRHAVGPRPATFLLDPYIALNVDDSRIGQTATKQKTNSPAWHDEFVTDVCNGRKIELAVFHAAPIGYDDFVANCTIQFEELLQNGSRHFEDWIDLEPEGRVYVIIDLSGSSGEAPKDNEERVFRERMRPRKRQGAVRRRVHQVNGHKFMATYLRQPTYCSHCRDFIWGVIGKQGYQCQVCTCVVHKRCHELIITKCAGLKKQETPDQVGSQRFSVNMPHKFGIHNYKVPTFCDHCGSLLWGLLRQGLQCKVCKMNVHRRCETNVAPNCGVDARGIAKVLADLGVTPDKITNSGQRRKKLIAGAESPQPASGGSPSEEDRSKSAPTSPCDQEIKELENNIRKALSFDNRGEEHRAASSPDGQLMSPGENGEVRQGQAKRLGLDEFNFIKVLGKGSFGKVMLAELKGKDEVYAVKVLKKDVILQDDDVDCTMTEKRILALARKHPYLTQLYCCFQTKDRLFFVMEYVNGGDLMFQIQRSRKFDEPRSRFYAAEVTSALMFLHQHGVIYRDLKLDNILLDAEGHCKLADFGMCKEGILNGVTTTTFCGTPDYIAPEILQELEYGPSVDWWALGVLMYEMMAGQPPFEADNEDDLFESILHDDVLYPVWLSKEAVSILKAFMTKNPHKRLGCVASQNGEDAIKQHPFFKEIDWVLLEQKKIKPPFKPRIKTKRDVNNFDQDFTREEPVLTLVDEAIVKQINQEEFKGFSYFGEDLMP
B2: D(86)N: εPKC mutant wherein D at position 86 of ΨεRACK in εPKC is substituted with an N (protein)
chain: B1 chain with A86N
B3: Wt: wild type εPKC, human construct (protein)
chain: B1 chain with A86D

Tested on: CHO cells
Assay: Real-time confocal imaging of PMA-induced εPKC translocation with mathematical modeling
Format: cell-based
Conditions: for time after PMA stimulation at which the enzyme was found at the cell periphery: YFP-εPKC D(86)A and CFP-εPKC Wt co-transfected in the same cell; for C3 / C5 / C1: constant of bi-exponential fit; for C1: level of εPKC in the cytosol at steady state; for k − 2: rate of detachment from the membrane; for k1 = C5: rate of εPKC opening in the cytosol
Procedure: CHO cells were grown on glass coverslips, and serum-starved as described in Example 4. For each experiment, cells were transferred to a commercially available metal coverslip holder (Molecular Probes) in which the coverslip formed the bottom of a 1 ml bath. The media was then replaced with extracellular buffer (120 mM NaCl, 5 mM KCl, 1.5 mM CaCl2, 1.5 mM MgCl2, 20 mM HEPES and 30 mM glucose). Cells were stimulated by either PMA (100 nM), or with ATP (1 mM) in extracellular buffer. Fluorescence images of GFP-tagged constructs were obtained using the 488 nm excitation line of a laser scanning confocal microscope (Pascal, Zeiss) and emission was collected through a 505-550 nm band pass filter. Cells were imaged on the stage of an inverted microscope (Axiovert 100M) using a 40× Zeiss Plan-apo oil immersion objective with 1.2 numerical aperture (NA). For dual color imaging of CFP and YFP fusion proteins, a spinning disk Nipkow confocal microscope was used. Cells were viewed using an inverted Olympus IX70 microscope with a 40× oil immersion Olympus objective (1.35NA) and images were acquired with a CCD camera (Hamamatsu) and 2×2 pixel binning. CFP was excited with the 442 nm laser line of a helium-cadmium laser (Kimmon) whereas YFP was imaged with the 514 nm line of an argon ion laser (Melles-Griot). To selectively photobleach YFP labeled proteins in local regions of the cytoplasm for FRAP experiments, the 514 nm line of an Enterprise laser (Coherent) at maximal power (˜400 mW) was used. For these experiments, a 60× oil immersion objective was used (1.4NA). Under these conditions, and by placing an iris in the beam path, it was possible to bleach 80% of the YFP fluorescence in 500 ms in an area of the cytosol measuring approximately 35 um2. Real time confocal images were acquired every 10-15 seconds for 20 minutes for experiments utilizing PMA, and every 5 seconds for a total duration of 3 minutes in the case of cells stimulated with ATP. Reagents were added to the cell chamber after the fifth image in each time series. […] All images were acquired at room temperature. Images were exported as 12 or 16 bit files and changes in fluorescence intensity were measured using MetaMorph® data analysis software (Universal Imaging Corp.). To monitor the translocation of PKC, a small region of interest was selected in the cytosol of each cell and fluorescence intensity values graphed against time after subtraction of background values and normalized so that the initial fluorescence was 100%. Averages of 10-15 cells from three independent experiments were used. To determine statistical significance, a 1 tail type 2 T-test (Microsoft excel) was used.
Mathematical modeling was obtained from data of cells expressing similar levels of the different εPKC ΨεRACK mutants. Non-linear least squares curve fitting analysis was performed using the EViews software (QMS) and differential equation analysis was performed using Berkeley Madonna™. All other methods for this Example were performed as described, for example, in Examples 4 and 6.
Fluorescence time courses were analyzed by a non-linear regression analysis with single and biexponential equations (1 and 2) as previously done by Nalefski and Newton Nalefski, E. A. & Newton, A. C., Biochemistry 40:13216-13229 (2001)], where I(t) is the concentration of observed molecules in the cytosol at time (t), and C1-5 are constants. I(t)=C1+C2e^(−C3(t)) 1. I(t)=C1+C2e^(−C3(t))+C4e^(−C5(t)) 2. Residual error graphs obtained using single exponential equations (FIG. 8A) and using biexponential equations (FIG. 8B) for the D(86)A εPKC mutant translocation process is shown in FIGS. 8A-8D. […] This process can be described as follows:
The value of C1 corresponds to the level of εPKC in the cytosol at steady state. It was next determined whether the hypothesis that the values obtained for C1 and C3 of D(86)A and Wt εPKCs are statistically equivalent. […]

[1] = rate of closing in the cytosol, assumed negligible
[2] = rate of εPKC binding to the membrane, calculated with k-1 negligible

Molecule | rate of translocation (decrease of fluorescence in the cytoplasm) (100 nM PMA, GFP fusion) | time at which translocation to the cell periphery became apparent (100 nM PMA, GFP fusion) | time after PMA stimulation at which the enzyme was found at the cell periphery (100 nM PMA) [min] | (k2 + k − 2) = C3 (calculated with k-1 negligible) | k − 2/(k2 + k − 2) = C1/100 (calculated with k-1 negligible) | C3 (100 nM PMA) | C5 (100 nM PMA) | C1 (100 nM PMA) | k − 1 [1] | k − 2 (calculated with k-1 negligible) | k2 [2] | k1 = C5 (calculated with k-1 negligible) | steady state level of fluorescence in the cytoplasm (100 nM PMA, GFP fusion) | k2 (rate of binding to the membrane, simulations using differential equations) | k − 1 (rate of closing, simulations using differential equations) | k − 2 (simulations using differential equations) | k1 (rate of opening, simulations using differential equations, k1 = C5 not valid)
B1 | faster rate | within one minute | 1.5 | 0.016 ± 0.001 | 0.306 ± 0.002 | 0.016 ± 0.001 | 0.040 ± 0.007 | 30.59 ± 0.286 | ~0 | 0.005 ± 0.0004 | 0.011 ± 0.003 | 0.040 ± 0.007 | – | – | – | – | –
B2 | – | 5 min | – | – | – | 0.010 ± 0.0003 | 0.034 ± 0.004 | 38.38 ± 0.254 | – | – | – | – | higher level | 0.01138 | 0.005 | 0.0052 | 0.0135
B3 | slower rate | 2 to 3 min | > 10 | 0.016 ± 0.004 | 0.305 ± 0.010 | 0.016 ± 0.004 | 0.009 ± 0.001 | 30.46 ± 0.991 | ~0 | 0.005 ± 0.0011 | 0.011 ± 0.002 | 0.009 ± 0.001 | – | – | – | – | –
